# Assay results reported in US20130046257A1, “METHODS OF USING AGENTS THAT MODULATE CLAUDIN EXPRESSION” (priority 2010, published 2013).
# Several values for one entry are separate records, joined by “and”; a condition that tells them apart may be missing. Equal entries are not always repeated.
# B1: CLDN1 siRNA: claudin-1 siRNA (h), Santa Cruz; a pool of 3 separate strands, SEQ ID NO: 10-15 (nucleic acid)
# chain 1: UACAUAGGCAUAGUUCAUGNN
# chain 2: CAUGAACUAUGCCUAUGUANN
# chain 3: AACGUAUGCAGUUAAUUCCNN
# chain 4: GGAAUUAACUGCAUACGUUNN
# chain 5: UGAAGAUCUAUGUAUGUGGNN
# chain 6: CCACAUACAUAGAUCUUCANN
# modifications: chemistry not given here
# Assays:
# [1] = test system: primary human keratinocytes (PHK); experiment: Trans Epithelial Electric Resistance (TEER) of PHK; format: cell-based
# Protocol: Human keratinocytes were isolated from neonatal foreskin. Poumay et al., “Basal Detachment of the Epidermis Using Dispase: Tissue Spatial Organization and Fate of Integrin Alpha 6 Beta 4 and Hemidesmosomes,” J. Invest. Dermatol. 102:111-7 (1994), which is hereby incorporated by reference in its entirety. PHK were cultured in Keratinocyte-SFM (Invitrogen/Gibco) with 1% Pen/Strep, 0.2% Amphotericin B (Invitrogen/Gibco). To differentiate PHK, cells were grown in DMEM (Invitrogen/Gibco) with 10% heat-inactivated fetal bovine serum (Invitrogen/Gibco) and 1% Pen/Strep, 0.2% Amphotericin B (Invitrogen/Gibco). For TJ modulation experiments, the following cytokines were added alone or in combination to the differentiation media; human IL-4 (50 ng/ml; R&D system) and IL-13 (50 ng/ml; R&D system).
# PHK were plated at a subconfluent density of 2.5−3×10^4 cells/filter in Transwell insert and cultured in Keratinocyte-SFM media until confluent. TEER was measured using an EVOMX voltohmmeter (World Precision Instruments, Sarasota, Fla.). The resistance of cell-free filters was subtracted from each experimental value.
# PHK were plated on glass coverslips at 2-3×10^5 cells/well in a 6-well plate or at 2-3×10^4 cells/filter in Transwell insert (Costar; PET membrane, 0.4 μm pore size, 6.5 mm insert) in Keratinocyte-SFM without antibiotics. The next day after plating, cells were transfected with claudin-1 specific or control (scrambled) siRNAs (Santa Cruz) using Lipofectamine™ 2000 transfection Reagent (Invitrogen). TEER and permeability experiments were conducted 48 hours after PHK were switched to differentiation media.
# TEER was measured in PHK as described above. PHK were stimulated with S. aureus-derived peptidoglycan (PGN, 0.2-20 μg/ml, n=3-7) (FIG. 19A), Malp-2 (10-1000 ng/ml, n=3) (FIG. 19B), and Pam3CSK4 a TLR1/2 ligand (0.01-20 μg/ml, n=3-6) (FIG. 19C). Data are presented by analyzing the area under the TEER curve and normalized to the mean values for the control group (media alone)*p<0.05; **p<0.01.
# HSV-1 strain F [2] = experiment: HSV-1 fluorescent-focus assay in siRNA transfected PHK; format: cell-based, human; conditions: siRNA 100 nM
# Protocol: (§1) Infection studies were performed using the highly virulent HSV-1 strain F (provided by Dr. D.C. Johnson). Twenty-four to 48 h post-transfection with 100 nM claudin-1 or control siRNA, the cells were differentiated in DMEM with 10% heat-inactivated FBS for 24 h. Cells were washed twice with HBSS and infected with HSV-1 strain F at a multiplicity of infection (MOI) of 0.1 in DMEM containing 1% heat-inactivated FBS at 37° C., with rocking every 15 min. After 2 h, the viral inoculum was removed, and the cells were washed 2× with HBSS and incubated in DMEM containing 5% HI-FBS and 0.4% human-γ-globulin (Sigma; final concentration 0.5 mg/ml) for 24 hr to neutralize any extracellular virus.
# HSV-infected PHK were washed 2× with PBS and fixed in 4% formaldehyde/PBS for 20 min at room temperature. A polyclonal rabbit anti-HSV-1 (Dako) antibody diluted 1:500 in PBS/1% BSA was placed on the PHK for 1 h at 37° C. followed by Alexa Fluor 488 donkey-anti-rabbit IgG H+L (1:1000, Molecular Probes) and 4′,6-diamidino-2-phenyl-indole, dihydrochloride (DAPI) (1:10,000, Molecular Probes). Coverslips were mounted onto slides with SlowFade (Molecular Probes). […] Images were stored in Portable Network Graphics (PNG) format and analyzed computationally to objectively quantify differences in focal forming units (FFU). […] Cell density was calculated by counting the number of DAPI labeled nuclei, assigned to the blue channel. Images were analyzed using MATLAB to enumerate FFU, and total cell number. […]
# The MOI was chosen based on findings from viral titration (0.01 to 10 MOI) studies on differentiated and undifferentiated PHK, respectively, used as negative and positive controls. […] For each sample, six random fields were captured at identical acquisition settings and analyzed computationally to objectively quantify differences in focal forming units (FFU). […] An average of 4.8±0.7 FFU/field were counted in CLDN1 knockdown PHK, while only 2.5±0.5 FFU/field were detected in the control cells (P=0.05; n=6; FIG. 15C). Adapted Fluorospot software was used to semi-quantify differences in dimensions of each FFU. […]
# HSV-1 strain F [3] = experiment: Infectious center assay (HSV-1 infected PHK on Vero cells); format: cell-based, human; conditions: siRNA 100 nM, 24 h post-infection, n=3
# Protocol: as §1
# Twenty-four hours post-infection, PHK were treated with 0.05% Trypsin—EDTA (Invitrogen/Gibco) for 5 min at 37° C. followed by gently scraping to lift the cells, washed 3 times in DMEM containing 1% HI-FBS, and vortexed for 30 sec to disrupt cell clumps. Alive cells were counted using Trypan blue exclusion and scalar PHK dilutions (1000 to 1 cells in 1 ml of media) were plated onto pre-grown monolayers of Vero cells in six well plates. After 2 h, 1 ml of DMEM containing 5% HI-FBS and 0.4% human-γ-globulin (Sigma; final concentration 0.5 mg/ml) was added to each well. […] Plaques were counted by 2 independent investigators and results expressed as percent of infected PHK.
molecule,measurement,setting,value
B1,TEER (FIG. 12C legend),"[1]; CLDN1 siRNA, PHK, n=4",80.6±6.4
same,TEER,"[1]; siRNA 100 nM, PHK 48 hours after switch to differentiation media, n=4",80.6±6.4 ohms×cm^2
same,drop in TEER,"[1]; siRNA 100 nM, vs scrambled siRNA-transfected PHK",≥ 50%
same,HSV-1 focal forming units,"HSV-1 strain F [2]; HSV-1 MOI 0.1, 24 h, n=6",4.8±0.7 FFU/field
same,FFU area,"HSV-1 strain F [2]; HSV-1 MOI 0.1, n=6",15649±4367 pixels
same,diameter of the major axis of FFU,"HSV-1 strain F [2]; HSV-1 MOI 0.1, n=6",207±22 μm and 207±21 μm
same,PHK infected with HSV-1,HSV-1 strain F [3],38±6% and 38±6.43%
